In patent publication US20070054344:

Tests used:
[1] = system: T1, N-terminal-valine fructosylated peptide having an amino acid sequence represented by SEQ ID NO: 2
T1 sequence: VHL

[2] = system: T2, fructosyl valyl histidine
T2 sequence: VH

f-VHLTP = system: T3, f-VHLTP
T3 sequence: VHLTP

f-VHLTPE = system: T4, f-VHLTPE
T4 sequence: VHLTPE

f-VHLT = system: T5, f-VHLT
T5 sequence: VHLT

Q: Which results are given for “defructosylation enzyme originating from a plant belonging to the family Zingiberaceae (Zingiber officinale rhizome)”?
A: Absorbance at 700 nm (mAbs), colour development of DA-64 (hydrogen peroxide produced) [1]: 570 mAbs; capillary electrophoresis peak area after 16 hours of reaction at 37° C. (defructosylation) [1]: the peak attributed to f-VHL does not exist and the peak attributed to VHL is increased (area: 32 mABU×sec); enzyme activity with the peptide as a substrate [1]: the enzyme is effective on fructosyl valine and at least fructosyl peptides having amino acid sequences represented by SEQ ID NOs: 1 to 5; Absorbance at 700 nm (mAbs), colour development of DA-64 (hydrogen peroxide produced) [2]: 735 mAbs; Michaelis constant (Km), Lineweaver-Burk's plots of enzyme activity (glucosone production) [2]: the Km value of the enzyme for fructosyl valyl histidine: 1.2 mM; absorbance at 550 nm (glucosone produced, glucose oxidase/peroxidase colour system) [2]: The absorbance was found to increase in accordance with the increase in concentration of fructosyl valyl histidine; enzyme activity with the peptide as a substrate [2]: the enzyme is effective on fructosyl valine and at least fructosyl peptides having amino acid sequences represented by SEQ ID NOs: 1 to 5; Absorbance at 700 nm (mAbs), colour development of DA-64 (hydrogen peroxide produced) (f-VHLTP): 198 mAbs; enzyme activity with the peptide as a substrate (f-VHLTP): the enzyme is effective on fructosyl valine and at least fructosyl peptides having amino acid sequences represented by SEQ ID NOs: 1 to 5; Absorbance at 700 nm (mAbs), colour development of DA-64 (hydrogen peroxide produced) (f-VHLTPE): 223 mAbs; enzyme activity with the peptide as a substrate (f-VHLTPE): the enzyme is effective on fructosyl valine and at least fructosyl peptides having amino acid sequences represented by SEQ ID NOs: 1 to 5; Absorbance at 700 nm (mAbs), colour development of DA-64 (hydrogen peroxide produced) (f-VHLT): 558 mAbs; enzyme activity with the peptide as a substrate (f-VHLT): the enzyme is effective on fructosyl valine and at least fructosyl peptides having amino acid sequences represented by SEQ ID NOs: 1 to 5
